Among the data in article PMC6249979 are other: relative amount of MRTF-A bound to Flag-actin (competition by co-expressed JMY) values, retold here.

This assay deals with Flag-actin-WT, P60709. Description: co-immunoprecipitation with anti-Flag magnetic beads, competition with purified MRTF-A (2-261), immunoblot quantification. Conditions: chain shown with the change; NIH 3T3 cells co-expressing Flag-actin-WT and myc-JMY constructs, serum-starved for 24 h post transfection; purified MRTF-A (2-261) added to the lysates prior …; parent: est. 0.97; read off a plot. Background: In western blotting, separated proteins are transferred to a membrane and probed.

B1: myc-JMY-f.l., Q9QXM1 R961E (protein)
chain: MSFALEETLESDWVAVRPHVFDEREKHKFVFIVAWNEIEGKFAITCHNRTAQRQRSGSREQAGTPASDGSRGPGSPAARGRSEAAASATAALRSPGPRKSQAWAEGGSPRSARSLKGDPPRGPAGRGPESPLRSPARAKASPLRRSAESRDAIASATPVPPAPPVPPVSSVRVVSASGAVSEEIEVLEMVREDEAPQPLPDSEQPPSAAELESSAEECSWAGLFSFQDLRAVHQQLCSVNSQLEPCLPVFPEEPSGMWTVLFGGAPEMTEQEIDALCYQLQVYLGHGLDTCGWKILSQVLFTETDDPEEYYESLSELRQKGYEEVLQRARRRIQELLDKHKTIESMVELLDLYQMEDEAYSSLAEATTELYQYLLQPFRDMRELAMLRRQQIKISMENDYLGPRRIESLQKEDADWQRKAHMAVLSIQDLTVKYFEITAKAQKAVYDRMRADQKKFGKASWAAAAERMEKLQYAVSKETLQMMRAKEICLEQKKHALKEEMQSLQGGTEAIARLDQLESDYYDLQLQLYEVQFEILKCEELLLTAQLESIKRLISEKRDEVVYYDTYESMEAMLEKEEMAASVHAQREELQKLQQKARQLEARRGRVSAKKAYLRNKKEICIAKHHEKFQQRFQSEDEYRAHHTIQIKRDKLHDEEERKSAWVSQERQRTLDRLRTFKQRYPGQVILKSTRLRVAHSRRKSTASPVPCEEQCHSLPTVLQGQEKTEVGGGGSQLGPSQTAEPQSLVQLEDTSSEQLESTSLPPRAVVSSELPPPQSAPLLTSIDPKPCSVTIDPLPPPLPPTPPPPPPPPPPPPPPLPVAKDNGASTTAETLEKDALRTEGNERSIPKSASAPAAHLFDSSQLVSARKKLRKTVEGLQRRRVSSPMDEVLASLKRGSFHLKKVEQRTLPPFPDEDDSNNILAQIRKGVKLKKVQKEVLRESFTLLPDTDPLTRSIHEALREIKEASPESEDEEEALPCTDWEN
Turning to B1, the other: relative amount of MRTF-A bound to Flag-actin (competition by co-expressed JMY) was 0.59.
